In one experiment the target is T1, 4H2248-AA.
T1 chain: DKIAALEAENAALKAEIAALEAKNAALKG
Kind of experiment: two-hybrid library CCmax.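 Note: natural log of median RNA to DNA barcode read ratio; higher means stronger binding.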 The note with it: mean of both orientations.

The target in the next experiment is T2, 4H2742-AA.
T2 chain: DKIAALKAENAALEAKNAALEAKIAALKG
Kind of experiment: two-hybrid library CCmax.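 Note: natural log of median RNA to DNA barcode read ratio; higher means stronger binding.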 The note with it: mean of both orientations.

The target of another experiment is T3, 4H391-AA.
T3 chain: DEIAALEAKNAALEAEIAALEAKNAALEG
Kind of experiment: two-hybrid library CCmax.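 Note: natural log of median RNA to DNA barcode read ratio; higher means stronger binding.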 The note with it: mean of both orientations.

Another experiment has as its target T4, 4H497-AA.
T4 chain: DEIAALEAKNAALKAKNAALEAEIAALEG
In words: two-hybrid library CCmax.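 Note: natural log of median RNA to DNA barcode read ratio; higher means stronger binding.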 The note with it: mean of both orientations.

The target in the next experiment is T5, 4H2283-AA.
T5 chain: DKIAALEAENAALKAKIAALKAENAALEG
Kind of experiment: two-hybrid library CCmax.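 Note: natural log of median RNA to DNA barcode read ratio; higher means stronger binding.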 The note with it: mean of both orientations.

Another experiment has as its target T6, 4H3666-AA.
T6 chain: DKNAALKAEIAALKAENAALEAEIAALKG
Kind of experiment: two-hybrid library CCmax.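 Note: natural log of median RNA to DNA barcode read ratio; higher means stronger binding.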 The note with it: mean of both orientations.

The next experiment addresses T7, 4H3591-AA.
T7 chain: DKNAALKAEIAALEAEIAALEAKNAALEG
Kind of experiment: two-hybrid library CCmax. The note with it: mean of both orientations.

The next experiment concerns the target T8, 4H3417-AA.
T8 chain: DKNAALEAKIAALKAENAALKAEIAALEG
Kind of experiment: two-hybrid library CCmax. The note with it: mean of both orientations.

The target of the next experiment is T9, 4H3066-AA.
T9 chain: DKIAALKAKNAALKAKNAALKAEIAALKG
Kind of experiment: two-hybrid library CCmax. The note with it: mean of both orientations.

The next experiment has as its target T10, 4H3628-AA.
T10 chain: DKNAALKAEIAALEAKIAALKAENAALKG
In words: two-hybrid library CCmax. The note with it: mean of both orientations.

A further experiment has as its target T11, 4H656-AA.
T11 chain: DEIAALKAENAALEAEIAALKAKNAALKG
In words: two-hybrid library CCmax. The note with it: mean of both orientations.

The target in the next experiment is T12, 4H2713-AA.
T12 chain: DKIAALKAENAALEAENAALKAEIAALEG
Kind of experiment: two-hybrid library CCmax. The note with it: mean of both orientations.

Another experiment concerns the target T13, 4H428-AA.
T13 chain: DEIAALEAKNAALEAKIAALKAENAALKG
Kind of experiment: two-hybrid library CCmax. The note with it: mean of both orientations.

The target in a further experiment is T14, 4H1809-AA.
T14 chain: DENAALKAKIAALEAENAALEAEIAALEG
In words: two-hybrid library CCmax. The note with it: mean of both orientations.

A further experiment addresses T15, 4H3920-AA.
T15 chain: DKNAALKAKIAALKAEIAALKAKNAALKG
In words: two-hybrid library CCmax. The note with it: mean of both orientations.

The target in a further experiment is T16, 4H189-AA.
T16 chain: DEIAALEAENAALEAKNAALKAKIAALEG
In words: two-hybrid library CCmax. The note with it: mean of both orientations.

The target in a further experiment is T17, 4H478-AA.
T17 chain: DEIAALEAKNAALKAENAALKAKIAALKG
In words: two-hybrid library CCmax. The note with it: mean of both orientations.

Another experiment deals with T18, 4H2991-AA.
T18 chain: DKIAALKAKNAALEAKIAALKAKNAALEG
In words: two-hybrid library CCmax. The note with it: mean of both orientations.

A further experiment deals with T19, 4H3102-AA.
T19 chain: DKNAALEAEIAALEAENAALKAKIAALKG
Kind of experiment: two-hybrid library CCmax. The note with it: mean of both orientations.

Another experiment concerns the target T20, 4H971-AA.
T20 chain: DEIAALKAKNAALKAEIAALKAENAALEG
In words: two-hybrid library CCmax.

Another experiment addresses T21, 4H3939-AA.
T21 chain: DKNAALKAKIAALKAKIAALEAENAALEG
In words: two-hybrid library CCmax. The note with it: mean of both orientations.

The next experiment has as its target T22, 4H1854-AA.
T22 chain: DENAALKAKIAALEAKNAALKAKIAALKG
Kind of experiment: two-hybrid library CCmax. The note with it: mean of both orientations.

A further experiment deals with T23, 4H3029-AA.
T23 chain: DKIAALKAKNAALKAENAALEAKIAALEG
Kind of experiment: two-hybrid library CCmax. The note with it: mean of both orientations.

In the next experiment the target is T24, 4H3709-AA.
T24 chain: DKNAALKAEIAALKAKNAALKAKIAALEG
In words: two-hybrid library CCmax. The note with it: mean of both orientations.

The next experiment deals with T25, 4H3446-AA.
T25 chain: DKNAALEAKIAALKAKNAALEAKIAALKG
Kind of experiment: two-hybrid library CCmax. The note with it: mean of both orientations.

A further experiment deals with T26, 4H3121-AA.
T26 chain: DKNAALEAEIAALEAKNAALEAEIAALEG
In words: two-hybrid library CCmax. The note with it: mean of both orientations.

Another experiment deals with T27, 4H675-AA.
T27 chain: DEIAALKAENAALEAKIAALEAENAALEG
Kind of experiment: two-hybrid library CCmax. The note with it: mean of both orientations.

Another experiment addresses T28, 4H2948-AA.
T28 chain: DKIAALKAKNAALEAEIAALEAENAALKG
In words: two-hybrid library CCmax. The note with it: mean of both orientations.

The target of a further experiment is T29, 4H2931-bH.
T29 chain: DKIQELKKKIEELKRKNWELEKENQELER
In words: two-hybrid library CCNG1.

Another experiment deals with T30, 4H932-bH.
T30 chain: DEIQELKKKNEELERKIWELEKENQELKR
In words: two-hybrid library CCNG1.

The next experiment addresses T31, 4H56-bH.
T31 chain: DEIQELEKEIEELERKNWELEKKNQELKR
Kind of experiment: two-hybrid library CCNG1.

The target of another experiment is T32, 4H3364-bH.
T32 chain: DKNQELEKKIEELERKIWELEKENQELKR
In words: two-hybrid library CCNG1.

Another experiment concerns the target T33, 4H2859-bH.
T33 chain: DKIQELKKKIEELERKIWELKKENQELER
Kind of experiment: two-hybrid library CCNG1.

In the next experiment the target is T34, 4H349-bH.
T34 chain: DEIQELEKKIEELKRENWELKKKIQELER
In words: two-hybrid library CCNG1.

A further experiment addresses T35, 4H3381-bH.
T35 chain: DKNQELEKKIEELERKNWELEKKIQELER
Kind of experiment: two-hybrid library CCNG1.

For a further experiment, the target named is T36, 4H730-bH.
T36 chain: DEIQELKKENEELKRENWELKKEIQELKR
In words: two-hybrid library CCNG1.

Another experiment addresses T37, 4H3041-bH.
T37 chain: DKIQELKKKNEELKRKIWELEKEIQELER
Kind of experiment: two-hybrid library CCNG1.

A further experiment has as its target T38, 4H491-bA.
T38 chain: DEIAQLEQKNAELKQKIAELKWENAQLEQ
Kind of experiment: two-hybrid library CCNG1.

For a further experiment, the target named is T39, 4H796-bH.
T39 chain: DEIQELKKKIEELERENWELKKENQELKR
In words: two-hybrid library CCNG1.

The target of a further experiment is T40, 4H3297-bH.
T40 chain: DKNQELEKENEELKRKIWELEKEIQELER
Kind of experiment: two-hybrid library CCNG1.

The next experiment has as its target T41, 4H949-bH.
T41 chain: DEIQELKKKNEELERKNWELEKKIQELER
In words: two-hybrid library CCNG1.

In another experiment the target is T42, O16-bN.
T42 chain: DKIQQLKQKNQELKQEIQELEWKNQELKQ
In words: two-hybrid library CCNG1.

B1: 4H146-AA (peptide)
chain: DEIAALEAENAALEAENAALEAEIAALKG
In the case of B1, the interaction score with 4H2248-AA was -1.75; with 4H2742-AA it was 0.586; with 4H391-AA it was -1.68; with 4H497-AA, 0.786; with 4H2283-AA it was -1.02; with 4H3666-AA, -0.984. The interaction score was -1.28 with 4H3591-AA; -0.477 with 4H3417-AA; 1.92 with 4H3066-AA; -1.8 in the experiment with 4H3628-AA; -1.76 with 4H656-AA; 0.457 with 4H2713-AA. For the same molecule, the interaction score with 4H428-AA was -1.8; with 4H1809-AA, -1.69; with 4H3920-AA, 0.785; with 4H189-AA, -0.199; with 4H478-AA it was 1.98; in the experiment with 4H2991-AA it was -0.675. The interaction score is -1.45 with 4H3102-AA; 0.134 in the experiment with 4H971-AA; -1.52 with 4H3939-AA; 1.2 in the experiment with 4H1854-AA; 2.06 with 4H3029-AA; -0.0632 with 4H3709-AA. Besides, the interaction score in the experiment with 4H3446-AA was -0.572; with 4H3121-AA, -1.69; in the experiment with 4H675-AA, -2.03; in the experiment with 4H2948-AA, -1.48.

B2: 4H2859-bH (peptide)
chain: DKIQELKKKIEELERKIWELKKENQELER
On to B2, for which the interaction score was -0.182 with 4H2931-bH; -0.5 with 4H932-bH; 0.547 with 4H56-bH; 1.02 with 4H3364-bH; 1.11 with 4H2859-bH; -0.11 with 4H349-bH. For the same molecule, the interaction score with 4H3381-bH was 0.199; with 4H730-bH it was -0.682; with 4H3041-bH, 1.2; in the experiment with 4H491-bA, 1.08; with 4H796-bH, -0.548; with 4H3297-bH it was 0.299. For the same molecule, the interaction score in the experiment with 4H949-bH was -1.01.

B3: 4H491-bA (peptide)
chain: DEIAQLEQKNAELKQKIAELKWENAQLEQ
Take B3: the results for the interaction score with O16-bN and with 4H491-bA were 0.749 and -0.879, respectively.

Source of the values: article PMC10397247.
